This note sets out measurements from paper PMC7305236.

Test [1] concerns the target atypical chemokine receptor ACKR3 (formerly CXCR7) (human) (UniProt P25106).
For test [2], the target named is delta opioid receptor (DOR) (human) (UniProt P41143).
The target of test [3] is kappa opioid receptor (KOR) (human) (UniProt P41145).
Test [4] deals with mu opioid receptor (MOR) (human) (UniProt P35372).

No end group written: not given here.

Chain of atypical chemokine receptor ACKR3 (formerly CXCR7) (human) (P25106 whole entry): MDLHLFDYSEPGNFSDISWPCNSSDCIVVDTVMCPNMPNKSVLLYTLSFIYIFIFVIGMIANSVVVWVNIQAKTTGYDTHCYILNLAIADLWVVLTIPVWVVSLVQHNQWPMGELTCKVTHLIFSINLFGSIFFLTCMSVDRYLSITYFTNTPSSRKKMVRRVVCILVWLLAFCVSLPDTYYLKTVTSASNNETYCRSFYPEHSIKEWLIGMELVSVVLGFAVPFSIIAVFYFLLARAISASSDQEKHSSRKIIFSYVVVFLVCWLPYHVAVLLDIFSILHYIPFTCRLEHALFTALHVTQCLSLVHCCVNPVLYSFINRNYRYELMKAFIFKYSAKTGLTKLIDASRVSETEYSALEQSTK

In the case of LGGFMRRV-NH2 [adrenorphin-derived peptide LGGFMRRV], in test [1], the Supplementary Table 4: EC50 of β-arrestin-1 recruitment to ACKR3, U87 cells worked out at 261 nM.
Same read-out and setting: to YGGFKRRV-NH2 [adrenorphin-derived peptide YGGFKRRV] belongs 10000 nM.
For YSGFMRRV-NH2 [adrenorphin-derived peptide YSGFMRRV], the Supplementary Table 4: EC50 of β-arrestin-1 recruitment to ACKR3, U87 cells in test [1] is 10000 nM.
With YGSFMRRV-NH2 [adrenorphin-derived peptide YGSFMRRV], the Supplementary Table 4: EC50 of β-arrestin-1 recruitment to ACKR3, U87 cells in test [1] turned out to be 668 nM. In addition, the Supplementary Table 4: EC50 of β-arrestin-1 recruitment to DOR, U87 cells in test [2] was over 10000 nM. This molecule also yielded a Supplementary Table 4: EC50 of β-arrestin-1 recruitment to KOR, U87 cells in test [3] of over 10000 nM. Besides, the Supplementary Table 4: EC50 of β-arrestin-1 recruitment to MOR, U87 cells in test [4] is over 10000 nM.
Regarding YAGFMRRV-NH2 [adrenorphin-derived peptide YAGFMRRV], the Supplementary Table 4: EC50 of β-arrestin-1 recruitment to ACKR3, U87 cells in test [1] turned out to be 611 nM. The molecule further had a Supplementary Table 4: EC50 of β-arrestin-1 recruitment to DOR, U87 cells in test [2] of 2320 nM. This molecule also yielded a Supplementary Table 4: EC50 of β-arrestin-1 recruitment to MOR, U87 cells in test [4] of 1090 nM.
In test [2], YGGFMRAV-NH2 [adrenorphin-derived peptide YGGFMRAV] returned a Supplementary Table 4: EC50 of β-arrestin-1 recruitment to DOR, U87 cells of 308 nM. Moreover, in test [3], the Supplementary Table 4: EC50 of β-arrestin-1 recruitment to KOR, U87 cells came to 1250 nM. The molecule also showed a Supplementary Table 4: EC50 of β-arrestin-1 recruitment to MOR, U87 cells in test [4] of 682 nM.
GGFMRRV-NH2 [adrenorphin-derived peptide - GGFMRRV]: the Supplementary Table 4: EC50 of β-arrestin-1 recruitment to ACKR3, U87 cells in test [1] is over 10000 nM.
As for YGGFARRV-NH2 [adrenorphin-derived peptide YGGFARRV], in test [1], the Supplementary Table 4: EC50 of β-arrestin-1 recruitment to ACKR3, U87 cells stood at 5000 nM. In addition, the Supplementary Table 4: EC50 of β-arrestin-1 recruitment to DOR, U87 cells in test [2] was over 10000 nM. The Supplementary Table 4: EC50 of β-arrestin-1 recruitment to KOR, U87 cells in test [3] was found to be 656 nM. In test [4], this molecule gave a Supplementary Table 4: EC50 of β-arrestin-1 recruitment to MOR, U87 cells of over 10000 nM.
For the molecule YGGFMKRV-NH2 [adrenorphin-derived peptide YGGFMKRV], in test [1], the Supplementary Table 4: EC50 of β-arrestin-1 recruitment to ACKR3, U87 cells was determined as 5000 nM. The same molecule registered a Supplementary Table 4: EC50 of β-arrestin-1 recruitment to DOR, U87 cells in test [2] of 360 nM. For the same molecule, the Supplementary Table 4: EC50 of β-arrestin-1 recruitment to KOR, U87 cells in test [3] is 416 nM. In addition, the Supplementary Table 4: EC50 of β-arrestin-1 recruitment to MOR, U87 cells in test [4] came out at 63.8 nM.
In test [1], YGGLMRRV-NH2 [adrenorphin-derived peptide YGGLMRRV] gave a Supplementary Table 4: EC50 of β-arrestin-1 recruitment to ACKR3, U87 cells of 10000 nM.
In test [1], YGGFMRKV-NH2 [adrenorphin-derived peptide YGGFMRKV] showed a Supplementary Table 4: EC50 of β-arrestin-1 recruitment to ACKR3, U87 cells of 10000 nM. The same molecule yielded a Supplementary Table 4: EC50 of β-arrestin-1 recruitment to DOR, U87 cells in test [2] of 378 nM. Further, the Supplementary Table 4: EC50 of β-arrestin-1 recruitment to KOR, U87 cells in test [3] was determined as 230 nM. Also, the Supplementary Table 4: EC50 of β-arrestin-1 recruitment to MOR, U87 cells in test [4] was found to be 786 nM.
YGGFMRRF-NH2 [adrenorphin-derived peptide YGGFMRRF]: in test [1], the Supplementary Table 4: EC50 of β-arrestin-1 recruitment to ACKR3, U87 cells worked out at 73.5 nM. Moreover, the Supplementary Table 4: EC50 of β-arrestin-1 recruitment to DOR, U87 cells in test [2] turned out to be 212 nM. Besides, the Supplementary Table 4: EC50 of β-arrestin-1 recruitment to KOR, U87 cells in test [3] was 80.9 nM. Moreover, the Supplementary Table 4: EC50 of β-arrestin-1 recruitment to MOR, U87 cells in test [4] amounted to 198 nM.
In turn, YGGFFRRV-NH2 [adrenorphin-derived peptide YGGFFRRV] had a Supplementary Table 4: EC50 of β-arrestin-1 recruitment to ACKR3, U87 cells in test [1] of 1540 nM. Besides, the Supplementary Table 4: EC50 of β-arrestin-1 recruitment to DOR, U87 cells in test [2] was determined as 1310 nM. Further, the Supplementary Table 4: EC50 of β-arrestin-1 recruitment to KOR, U87 cells in test [3] came out at 194 nM. The molecule also came in with a Supplementary Table 4: EC50 of β-arrestin-1 recruitment to MOR, U87 cells in test [4] of 363 nM.
For YGGFMRRQ-NH2 [adrenorphin-derived peptide YGGFMRRQ], in that order: 110 nM, 259 nM, 63.1 nM and 183 nM.
The corresponding values for YGGFMARV-NH2 [adrenorphin-derived peptide YGGFMARV] are 5000 nM, 147 nM, 2240 nM and 35.4 nM.
For YGGFMRRVC-NH2 (also: dimer of two chains) [adrenorphin-derived peptide (…)2], the Supplementary Table 4: EC50 of β-arrestin-1 recruitment to ACKR3, U87 cells in test [1] was found to be 52.9 nM. This molecule came in with a Supplementary Table 4: EC50 of β-arrestin-1 recruitment to DOR, U87 cells in test [2] of 253 nM. Moreover, in test [3], the Supplementary Table 4: EC50 of β-arrestin-1 recruitment to KOR, U87 cells is 79.4 nM. Moreover, the Supplementary Table 4: EC50 of β-arrestin-1 recruitment to MOR, U87 cells in test [4] is 271 nM.
The molecule YGGYMRRV-NH2 [adrenorphin-derived peptide YGGYMRRV] showed a Supplementary Table 4: EC50 of β-arrestin-1 recruitment to ACKR3, U87 cells in test [1] of 5000 nM.
AYGGFMRRV-NH2 yielded a Supplementary Table 4: EC50 of β-arrestin-1 recruitment to ACKR3, U87 cells in test [1] of 330 nM. Further, the Supplementary Table 4: EC50 of β-arrestin-1 recruitment to DOR, U87 cells in test [2] came to 637 nM. Further, in test [3], the Supplementary Table 4: EC50 of β-arrestin-1 recruitment to KOR, U87 cells came out at 205 nM. The Supplementary Table 4: EC50 of β-arrestin-1 recruitment to MOR, U87 cells in test [4] came to 308 nM.
The corresponding values for YGGFMRRA-NH2 [adrenorphin-derived peptide YGGFMRRA] are 201 nM, 260 nM, 132 nM and 265 nM.
In test [1], YGGFNRRV-NH2 [adrenorphin-derived peptide YGGFNRRV] had a Supplementary Table 4: EC50 of β-arrestin-1 recruitment to ACKR3, U87 cells of 10000 nM. Besides, the Supplementary Table 4: EC50 of β-arrestin-1 recruitment to KOR, U87 cells in test [3] is 508 nM.
Take YGAFMRRV-NH2 [adrenorphin-derived peptide YGAFMRRV]: in test [1], the Supplementary Table 4: EC50 of β-arrestin-1 recruitment to ACKR3, U87 cells is 263 nM. Further, in test [2], the Supplementary Table 4: EC50 of β-arrestin-1 recruitment to DOR, U87 cells worked out at 1580 nM. This molecule also yielded a Supplementary Table 4: EC50 of β-arrestin-1 recruitment to KOR, U87 cells in test [3] of 315 nM. The same molecule came in with a Supplementary Table 4: EC50 of β-arrestin-1 recruitment to MOR, U87 cells in test [4] of over 10000 nM.
Regarding AGGFMRRV-NH2 [adrenorphin-derived peptide AGGFMRRV], in test [1], the Supplementary Table 4: EC50 of β-arrestin-1 recruitment to ACKR3, U87 cells is over 10000 nM.
In test [1], YGGFLRRV-NH2 [adrenorphin-derived peptide YGGFLRRV] returned a Supplementary Table 4: EC50 of β-arrestin-1 recruitment to ACKR3, U87 cells of 684 nM. In test [2], this molecule registered a Supplementary Table 4: EC50 of β-arrestin-1 recruitment to DOR, U87 cells of 513 nM. In test [3], this molecule had a Supplementary Table 4: EC50 of β-arrestin-1 recruitment to KOR, U87 cells of 31.9 nM. The Supplementary Table 4: EC50 of β-arrestin-1 recruitment to MOR, U87 cells in test [4] worked out at 880 nM.
For YGGFMRRL-NH2 [adrenorphin-derived peptide YGGFMRRL], in that order: 153 nM, 254 nM, 71.2 nM and 294 nM.
With YGGFQRRV-NH2 [adrenorphin-derived peptide YGGFQRRV], the Supplementary Table 4: EC50 of β-arrestin-1 recruitment to ACKR3, U87 cells in test [1] came to 5000 nM. For the same molecule, the Supplementary Table 4: EC50 of β-arrestin-1 recruitment to DOR, U87 cells in test [2] is over 10000 nM. Also, the Supplementary Table 4: EC50 of β-arrestin-1 recruitment to KOR, U87 cells in test [3] was 283 nM. Also, the Supplementary Table 4: EC50 of β-arrestin-1 recruitment to MOR, U87 cells in test [4] was found to be 5000 nM.
FGGFMRRV-NH2 [adrenorphin-derived peptide FGGFMRRV] displayed a Supplementary Table 4: EC50 of β-arrestin-1 recruitment to ACKR3, U87 cells in test [1] of 9.33 nM.
YGGFMRRK-NH2 [adrenorphin-derived peptide YGGFMRRK]: the Supplementary Table 4: EC50 of β-arrestin-1 recruitment to ACKR3, U87 cells in test [1] is 37 nM. In test [2], this molecule came in with a Supplementary Table 4: EC50 of β-arrestin-1 recruitment to DOR, U87 cells of 527 nM. The same molecule came in with a Supplementary Table 4: EC50 of β-arrestin-1 recruitment to KOR, U87 cells in test [3] of 19.2 nM. For the same molecule, the Supplementary Table 4: EC50 of β-arrestin-1 recruitment to MOR, U87 cells in test [4] is 252 nM.
For YGGFMRRVR-NH2, in that order: 12.6 nM, 193 nM, 21.9 nM and 58.7 nM.
YRGFMRRV-NH2 [adrenorphin-derived peptide YRGFMRRV] gave a Supplementary Table 4: EC50 of β-arrestin-1 recruitment to ACKR3, U87 cells in test [1] of 5000 nM.
In test [1], YGGFMRRI-NH2 [adrenorphin-derived peptide YGGFMRRI] returned a Supplementary Table 4: EC50 of β-arrestin-1 recruitment to ACKR3, U87 cells of 115 nM. The same molecule came in with a Supplementary Table 4: EC50 of β-arrestin-1 recruitment to DOR, U87 cells in test [2] of 320 nM. Further, the Supplementary Table 4: EC50 of β-arrestin-1 recruitment to KOR, U87 cells in test [3] amounted to 76.9 nM. This molecule also yielded a Supplementary Table 4: EC50 of β-arrestin-1 recruitment to MOR, U87 cells in test [4] of 188 nM.
Consider YGGWMRRV-NH2 [adrenorphin-derived peptide YGGWMRRV], for which the Supplementary Table 4: EC50 of β-arrestin-1 recruitment to ACKR3, U87 cells in test [1] is 70.3 nM. This molecule yielded a Supplementary Table 4: EC50 of β-arrestin-1 recruitment to DOR, U87 cells in test [2] of 1020 nM. In test [3], this molecule yielded a Supplementary Table 4: EC50 of β-arrestin-1 recruitment to KOR, U87 cells of over 10000 nM. In test [4], this molecule registered a Supplementary Table 4: EC50 of β-arrestin-1 recruitment to MOR, U87 cells of 522 nM.
For YGGFMRRVA-NH2, in that order: 72.3 nM, 272 nM, 57.5 nM and 174 nM.
For YGGAMRRV-NH2 [adrenorphin-derived peptide YGGAMRRV], the Supplementary Table 4: EC50 of β-arrestin-1 recruitment to ACKR3, U87 cells in test [1] came to 10000 nM.
